Results published in IntAct's records for PubMed 29892012.

B1: Leucine-zipper-like transcriptional regulator 1 (Homo sapiens), Q8N653 (parent)
chain: MAGPGSTGGQIGAAALAGGARSKVAPSVDFDHSCSDSVEYLTLNFGPFETVHRWRRLPPCDEFVGARRSKHTVVAYKDAIYVFGGDNGKTMLNDLLRFDVKDCSWCRAFTTGTPPAPRYHHSAVVYGSSMFVFGGYTGDIYSNSNLKNKNDLFEYKFATGQWTEWKIEGRLPVARSAHGATVYSDKLWIFAGYDGNARLNDMWTIGLQDRELTCWEEVAQSGEIPPSCCNFPVAVCRDKMFVFSGQSGAKITNNLFQFEFKDKTWTRIPTEHLLRGSPPPPQRRYGHTMVAFDRHLYVFGGAADNTLPNELHCYDVDFQTWEVVQPSSDSEVGGAEVPERACASEEVPTLTYEERVGFKKSRDVFGLDFGTTSAKQPTQPASELPSGRLFHAAAVISDAMYIFGGTVDNNIRSGEMYRFQFSCYPKCTLHEDYGRLWESRQFCDVEFVLGEKEECVQGHVAIVTARSRWLRRKITQARERLAQKLEQEAAPVPREAPGVAAGGARPPLLHVAIREAEARPFEVLMQFLYTDKIKYPRKGHVEDVLLIMDVYKLALSFQLCRLEQLCRQYIEASVDLQNVLVVCESAARLQLSQLKEHCLNFVVKESHFNQVIMMKEFERLSSPLIVEIVRRKQQPPPRTPLDQPVDIGTSLIQDMKAYLEGAGAEFCDITLLLDGHPRPAHKAILAARSSYFEAMFRSFMPEDGQVNISIGEMVPSRQAFESMLRYIYYGEVNMPPEDSLYLFAAPYYYGFYNNRLQAYCKQNLEMNVTVQNVLQILEAADKTQALDMKRHCLHIIVHQFTKVSKLPTLRSLSQQLLLDIIDSLASHISDKQCAELGADI
B2: F-box/LRR-repeat protein 12 (Homo sapiens), Q9NXK8 (parent)
chain: MATLVELPDSVLLEIFSYLPVRDRIRISRVCHRWKRLVDDRWLWRHVDLTLYTMRPKVMWHLLRRYMASRLHSLRMGGYLFSGSQAPQLSPALLRALGQKCPNLKRLCLHVADLSMVPITSLPSTLRTLELHSCEISMAWLHKQQDPTVLPLLECIVLDRVPAFRDEHLQGLTRFRALRSLVLGGTYRVTETGLDAGLQELSYLQRLEVLGCTLSADSTLLAISRHLRDVRKIRLTVRGLSAPGLAVLEGMPALESLCLQGPLVTPEMPSPTEILSSCLTMPKLRVLELQGLGWEGQEAEKILCKGLPHCMVIVRACPKESMDWWM
partner: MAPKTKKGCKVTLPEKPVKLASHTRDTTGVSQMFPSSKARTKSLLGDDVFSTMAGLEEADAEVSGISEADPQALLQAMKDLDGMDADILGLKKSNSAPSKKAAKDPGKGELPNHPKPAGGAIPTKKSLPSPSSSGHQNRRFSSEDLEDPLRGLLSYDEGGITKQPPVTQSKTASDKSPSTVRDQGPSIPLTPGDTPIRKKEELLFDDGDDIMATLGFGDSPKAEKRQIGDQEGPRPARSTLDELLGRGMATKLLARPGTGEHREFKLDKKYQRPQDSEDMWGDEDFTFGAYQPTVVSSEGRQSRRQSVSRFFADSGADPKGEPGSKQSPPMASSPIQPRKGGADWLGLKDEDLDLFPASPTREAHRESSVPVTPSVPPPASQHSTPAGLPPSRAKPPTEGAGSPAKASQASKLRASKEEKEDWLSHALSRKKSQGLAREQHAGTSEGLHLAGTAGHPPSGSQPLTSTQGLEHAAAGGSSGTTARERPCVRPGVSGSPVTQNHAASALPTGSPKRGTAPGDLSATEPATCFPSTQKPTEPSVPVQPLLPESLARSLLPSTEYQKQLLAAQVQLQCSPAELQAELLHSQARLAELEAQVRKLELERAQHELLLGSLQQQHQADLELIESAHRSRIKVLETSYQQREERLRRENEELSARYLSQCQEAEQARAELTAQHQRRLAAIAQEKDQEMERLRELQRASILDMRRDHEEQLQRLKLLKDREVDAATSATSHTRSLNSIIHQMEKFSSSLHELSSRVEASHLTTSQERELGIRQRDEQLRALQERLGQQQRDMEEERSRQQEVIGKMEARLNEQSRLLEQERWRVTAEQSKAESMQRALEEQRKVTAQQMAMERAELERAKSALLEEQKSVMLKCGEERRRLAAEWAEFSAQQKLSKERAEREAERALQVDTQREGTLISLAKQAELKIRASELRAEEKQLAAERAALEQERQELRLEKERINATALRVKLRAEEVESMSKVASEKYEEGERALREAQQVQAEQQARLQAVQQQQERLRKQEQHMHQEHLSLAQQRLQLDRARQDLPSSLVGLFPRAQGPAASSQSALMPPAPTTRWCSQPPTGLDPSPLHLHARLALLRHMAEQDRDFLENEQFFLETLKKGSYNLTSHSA
B3: Vacuolar protein-sorting-associated protein 25 (Homo sapiens), Q9BRG1 (parent)
chain: MAMSFEWPWQYRFPPFFTLQPNVDTRQKQLAAWCSLVLSFCRLHKQSSMTVMEAQESPLFNNVKLQRKLPVESIQIVLEELRKKGNLEWLDKSKSSFLIMWRRPEEWGKLIYQWVSRSGQNNSVFTLYELTNGEDTEDEEFHGLDEATLLRALQALQQEHKAEIITVSDGRGVKFF
partner: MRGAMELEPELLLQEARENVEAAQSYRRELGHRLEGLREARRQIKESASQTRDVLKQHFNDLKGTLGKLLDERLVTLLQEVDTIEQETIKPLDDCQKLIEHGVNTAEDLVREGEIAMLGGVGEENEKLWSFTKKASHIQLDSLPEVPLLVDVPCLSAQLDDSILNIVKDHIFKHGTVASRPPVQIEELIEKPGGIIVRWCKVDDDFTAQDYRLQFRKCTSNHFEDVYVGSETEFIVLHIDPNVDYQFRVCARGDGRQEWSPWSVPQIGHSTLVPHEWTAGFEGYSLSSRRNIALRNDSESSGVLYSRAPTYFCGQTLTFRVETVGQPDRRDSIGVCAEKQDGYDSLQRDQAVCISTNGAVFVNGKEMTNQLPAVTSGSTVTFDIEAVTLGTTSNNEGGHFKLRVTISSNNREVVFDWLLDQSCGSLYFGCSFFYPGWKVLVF
B4: UBX domain-containing protein 6 (Homo sapiens), Q9BZV1 (parent)
chain: MKKFFQEFKADIKFKSAGPGQKLKESVGEKAHKEKPNQPAPRPPRQGPTNEAQMAAAAALARLEQKQSRAWGPTSQDTIRNQVRKELQAEATVSGSPEAPGTNVVSEPREEGSAHLAVPGVYFTCPLTGATLRKDQRDACIKEAILLHFSTDPVAASIMKIYTFNKDQDRVKLGVDTIAKYLDNIHLHPEEEKYRKIKLQNKVFQERINCLEGTHEFFEAIGFQKVLLPAQDQEDPEEFYVLSETTLAQPQSLERHKEQLLAAEPVRAKLDRQRRVFQPSPLASQFELPGDFFNLTAEEIKREQRLRSEAVERLSVLRTKAMREKEEQRGLRKYNYTLLRVRLPDGCLLQGTFYARERLGAVYGFVREALQSDWLPFELLASGGQKLSEDENLALNECGLVPSALLTFSWDMAVLEDIKAAGAEPDSILKPELLSAIEKLL
partner: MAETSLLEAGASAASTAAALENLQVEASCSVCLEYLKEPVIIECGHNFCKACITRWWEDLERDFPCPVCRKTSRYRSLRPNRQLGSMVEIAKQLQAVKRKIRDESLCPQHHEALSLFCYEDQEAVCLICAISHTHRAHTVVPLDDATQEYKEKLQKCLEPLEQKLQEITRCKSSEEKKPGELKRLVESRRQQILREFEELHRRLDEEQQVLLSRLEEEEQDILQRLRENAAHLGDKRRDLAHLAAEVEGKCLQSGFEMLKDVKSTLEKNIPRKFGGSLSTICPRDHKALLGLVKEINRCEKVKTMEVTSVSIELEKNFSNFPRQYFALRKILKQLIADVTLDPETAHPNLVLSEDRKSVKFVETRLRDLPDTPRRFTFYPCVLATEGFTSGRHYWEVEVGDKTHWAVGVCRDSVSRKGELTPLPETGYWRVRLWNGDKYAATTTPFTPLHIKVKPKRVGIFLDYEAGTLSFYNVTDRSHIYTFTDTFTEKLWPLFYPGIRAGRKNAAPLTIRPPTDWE

Variants of: B1
Conditions: with gcp4_human TUBGCP4, Q9UGJ1
gcp4_human TUBGCP4, Q9UGJ1, sequence (Q9UGJ1 whole entry): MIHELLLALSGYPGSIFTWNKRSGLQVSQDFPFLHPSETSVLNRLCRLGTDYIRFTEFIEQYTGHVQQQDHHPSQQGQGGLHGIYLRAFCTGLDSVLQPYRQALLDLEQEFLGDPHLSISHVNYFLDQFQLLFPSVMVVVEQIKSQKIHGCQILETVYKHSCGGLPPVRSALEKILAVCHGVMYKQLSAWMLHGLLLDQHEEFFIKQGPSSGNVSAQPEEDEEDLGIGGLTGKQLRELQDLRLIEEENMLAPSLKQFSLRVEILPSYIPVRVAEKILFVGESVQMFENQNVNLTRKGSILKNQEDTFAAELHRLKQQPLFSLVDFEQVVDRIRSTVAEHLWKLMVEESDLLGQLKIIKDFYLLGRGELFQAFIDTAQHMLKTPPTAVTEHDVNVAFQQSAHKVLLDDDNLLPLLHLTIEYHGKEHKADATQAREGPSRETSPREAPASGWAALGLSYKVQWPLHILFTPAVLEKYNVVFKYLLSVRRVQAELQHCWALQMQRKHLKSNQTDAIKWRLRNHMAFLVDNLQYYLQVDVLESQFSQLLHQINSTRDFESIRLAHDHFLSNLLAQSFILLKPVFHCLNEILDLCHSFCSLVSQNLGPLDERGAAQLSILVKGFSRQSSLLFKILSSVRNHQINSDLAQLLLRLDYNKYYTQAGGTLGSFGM

Row | effect of a mutation on the interaction | Variant
1 | with no effect | E721K

Variants of: B1
Conditions: with gcp4_human TUBGCP4, Q9UGJ1
Remark: another data set of the same source

Row | effect of a mutation on the interaction | Variant
2 | disrupting interaction strength | G663V

Variants of: B2
Conditions: with fbf1_human FBF1, Q8TES7

Row | effect of a mutation on the interaction | Variant
3 | with no effect | I313V

Variants of: B3
Conditions: with crlf3_human CRLF3, Q8IUI8

Row | effect of a mutation on the interaction | Variant
4 | with no effect | P58Q

Variants of: B4
Conditions: with tri39_human TRIM39, Q9HCM9

Row | effect of a mutation on the interaction | Variant
5 | disrupting interaction strength | E391K
